System: 3677 melanoma cells
Assay: In vitro cytotoxicity, [3H]thymidine incorporation
Assay type: cell-based, human
Method: In Vitro Cytotoxicity. 3677 melanoma cells were plated into 96-well microliter plates (10^4 cells/well in 100 μL of Iscove's Modified Dulbecco's Medium (IMDM) with 10% fetal bovine serum, penicillin (60 μg/ml), and streptomycin (100 μg/ml) and allowed to adhere overnight. For blocking experiments, the cells were incubated with unconjugated L49 at 1 μM for 30 min. prior to treatment with the L49 conjugates. The cells were treated with L49-sFv-bL or L49 Fab'-bL at 10 nM. After 30 min. at 4° C., the plates were washed three times with antibiotic-free RPMI 1640 media (Gibco) with 10% fetal bovine serum, and then varying concentrations of CCM (FIG. 1) were added. CCM and PDM were also added to cells treated with media alone. After 1 h at 37° C., cells were washed three times with IMDM and incubated approximately 18 h at 37° C. The cells were then pulsed for 12 h with [^3 H] thymidine (1 μCi/well) at 37° C., detached by freezing at -20° C. and thawing, and harvested onto glass fiber filter mats using a 96-well harvester (Wallac, Gaithersburg, Md.). Radioactivity was counted using a LKB Wallac β-plate counter.
In Vitro Cytotoxicity. […] Radioactivity was counted using a LKB Wallac β-plate counter.
The cytotoxic effects of L49-sFv-bL in combination with CCM were determined on 3677 human melanoma cells, which express the p97 antigen. […]

B1: L49-sFv-bL: recombinant fusion protein: L49 anti-p97 single-chain Fv (VH-218 linker-VL) fused to r2-1 mutant E. cloacae β-lactamase, SEQ ID NO: 20 (protein)
chain: MKYLLPTAAAGLLLLAAQPAMAEVQLQESGPSLVKPSQTLSLTCSVTGDSITSGYWNWIRKFPGNKLEYMGYISDSGITYYNPSLKSRISITRDTSKNQYYLQLNFVTAEDTATYNCARRTLATYYAMDYWGQGTSVTVSSGSTSGSGKPGSGEGSTKGDFVMTQTPLSLPVSLGDQASISCRASQSLVHSNGNTYLHWYLQKPGQSPKLLIYRVSNRFSGVPDRFSGSGSGTDFTLKISRVEAEDLGVYFCSQSTHVPPTFGGGTKLEIKRTPVSEKQLAEVVANTITPLMKAQSVPGMAVAVIYQGKPHYYTFGKADIAANKPVTPQTLFELGSISKTFTGVLGGDAIARGEISLDDAVTRYWPQLTGKQWQGIRMLDLATYTAGGLPLQVPDEVTDNASLLRFYQNWQPQWKPGTTRLYANASIGLFGALAVKPSGMPYEQAMTTRVLKPLKLDHTWINVPKAEEAHYAWGYRDGKAVRVSPGMLDAQAYGVKTNVQDMANWVMANMAPENVADASLKQGIALAQSRYWRIGSMYQGLGWEMLNWPVEANTVVETSFGNVALAPLPVAEVNPPAPPVKASWVHKTGSTGGFGSYVAFIPEKQIGIVMLANTSYPNPARVEAAYHILEALQTSEFE
cytotoxic activity of conjugate + CCM combination (conjugate 10 nM, washed, then CCM 1 h): equivalent in activity to PDM
activation of CCM on cells previously saturated with L49 mAb (unconjugated L49 1 μM before the fusion protein): did not activate CCM

Source: patent US6132722A, “Recombinant antibody-enzyme fusion proteins” (Bristol-Myers Squibb Company, priority 1998, dated 2000)
